Source: US20210324050A1 (VANDERBILT UNIVERSITY, published 2021)
Residue numbers refer to the chain shown, from its start.

Tests used:
[1] = target: GII.4 Sydney 2012 virus-like particles (VLPs), based on strain AFV08795.1 (human norovirus GII.4 Sydney 2012, UniProt P54635 1-538); experiment: indirect ELISA on coated GII.4 Sydney 2012 VLPs
[2] = target: T1, GII.4 Houston 2002 (ABY27560.1) VLPs (human norovirus GII.4 Houston 2002, UniProt P54635 1-539); experiment: ELISA on GII.4 Houston 2002 VLPs
T1 construct: also called GII.4 Houston 2002 antigen; GII.4 Houston VLPs
T1 chain: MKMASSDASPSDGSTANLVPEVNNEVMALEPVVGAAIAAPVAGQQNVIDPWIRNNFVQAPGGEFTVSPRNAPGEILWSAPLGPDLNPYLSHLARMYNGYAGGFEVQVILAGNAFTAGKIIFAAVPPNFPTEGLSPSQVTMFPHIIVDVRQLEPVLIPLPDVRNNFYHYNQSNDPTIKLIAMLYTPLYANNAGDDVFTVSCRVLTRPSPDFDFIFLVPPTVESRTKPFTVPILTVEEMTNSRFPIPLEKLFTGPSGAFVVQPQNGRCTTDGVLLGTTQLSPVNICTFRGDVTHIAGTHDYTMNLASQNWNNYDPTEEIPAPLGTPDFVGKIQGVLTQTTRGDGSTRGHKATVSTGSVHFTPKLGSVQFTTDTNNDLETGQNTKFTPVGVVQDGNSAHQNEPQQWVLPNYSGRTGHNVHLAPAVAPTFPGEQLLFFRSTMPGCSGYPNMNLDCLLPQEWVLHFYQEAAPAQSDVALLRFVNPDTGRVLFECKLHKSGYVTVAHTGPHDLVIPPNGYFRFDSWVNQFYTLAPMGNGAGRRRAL

[3] = target: T2, GII.4 Sydney 2012 virus-like particles (VLPs), based on strain AFV08795.1 (human norovirus GII.4 Sydney 2012, UniProt P54635 1-538); experiment: indirect ELISA on coated GII.4 Sydney 2012 VLPs
T2 construct: also called GII.4 VLPs
T2 chain: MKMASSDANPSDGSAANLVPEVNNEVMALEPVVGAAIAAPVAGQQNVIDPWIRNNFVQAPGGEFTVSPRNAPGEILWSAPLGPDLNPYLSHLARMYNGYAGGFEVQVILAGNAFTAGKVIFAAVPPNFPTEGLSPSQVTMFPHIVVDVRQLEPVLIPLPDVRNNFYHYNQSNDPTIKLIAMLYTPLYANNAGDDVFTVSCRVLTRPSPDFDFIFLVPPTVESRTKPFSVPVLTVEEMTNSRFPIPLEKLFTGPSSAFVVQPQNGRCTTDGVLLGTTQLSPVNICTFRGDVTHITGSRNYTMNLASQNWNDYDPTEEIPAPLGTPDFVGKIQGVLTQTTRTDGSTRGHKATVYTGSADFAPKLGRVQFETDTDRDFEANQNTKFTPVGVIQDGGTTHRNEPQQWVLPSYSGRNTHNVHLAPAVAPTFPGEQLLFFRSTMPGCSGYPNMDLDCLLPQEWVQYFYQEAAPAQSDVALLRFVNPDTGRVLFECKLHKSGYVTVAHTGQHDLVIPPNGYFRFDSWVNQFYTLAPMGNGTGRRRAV

B1: NORO-232A.2 (antibody, V domains shown)
VH: QVQLKQWGAGLLKSSETLSLTCAFNGNSFGAFYWSWIRLSPGKGLEWIGEVNYLGGADYNPSLKSRVTMSADTSKRQFSLSLKSVTAADTGVYFCARGRPHDYSPGSYSRPRRYYGLDVWGQGTTVTVSS
VL: EIVLTQSPATLSLSPGDSATLSCRASQAVSTTYLAWYQQTRGQAPRLLIHGTYTRAIGIPDKFSGTGSGTDFTLTISGLAPEDFAVYYCQQYSSSPYTFGQGTKIEIT
EC50 [1]: 0.3 µg/mL

B2: NORO-256A (antibody, V domains shown)
VH: QVQLVESGGGVVQAGRSLRLSCAASGFTFRSYGMHWVRQAPGKGLEWVAIISYDGGSKYYADSVKGRFTISRDNSKNTLYLQMNSLRVEDTALYYCAKDFLRVYSYGWHSFDIWGLGTLVTVSS
VL: QSVLTQPPSVSAAPGQRVTISCSGSSSNIGTYYVSWYQHLPGTAPKLLIYDNDKRPSGIPDRFSASKSGTSATLDIAGLQTGDEADYYCGTWDLSLTAGWVFGGGTKLTVL
binding result [2]: binds
EC50 [3]: 0.9 µg/mL

B3: NORO-246A (antibody, V domains shown)
VH: EVHLVESGGGLVKPGGSLRLSCAASGFTFSRYGMHWVRQAPGKGLEWVSSIVIRSDYKYYADSVKGRFTISRDNAKNSLYLQMNSLRADDTAVYYCARDLVEPGITPVGCDYWGRGTLVTVSS
VL: SNELTQAPSVSVSPGQTARITCFGDALANQYSYWYQRKPGQAPVLVIYKDSERPSGIPQRFSASNSGTTVTLTITGVQAEDEADYFCQSADSTGIYKVFGGGTKLTVL
EC50 [1]: 0.2 µg/mL

B4: NORO-303 (antibody, V domains shown)
VH: QVQLVESGGGVVQPGRSLRLSCAASGFIFSSYAMHWVRQAPGKGLEWVAVMSYDGNNKYYADSVKGRFTISRDNSKNTLFLQMNSLRPEDTAVYYCARDCRVGWVFTYGMDVWGQGTLVTVSS
VL: QSALTQPPSASGSPGQSVTISCTGTSSDVGGYNYVSWYQQHPGKAPKLMMYEISKRPSGVPIRFSGSKSGNTASLTVSGLQAEDEADYYCSSYAGTYNCVVFGGGTKLTVL
binding result [2]: binds
EC50 [3]: 0.5 µg/mL

B5: NORO-273A (antibody, V domains shown)
VH: QVQLVQSGAEVKKPGASVKISCKASGYDFTSFPMHWVRLGPGQRLEWMGWISAANGNTKYSQKFQDRFTITRDTSASIVHMELSSLRSEDTAVYYCARGGYSSGLYRYSNYYYGMTVWGQGTLVTVSS
VL: DIVMTQTPLSLSVTPGQPASISCKSSESLLHNDRKTYLFWYLQKPGQPPQLLIFQVSNRFSGVPDRFSGSGSGTDFTLRISRVEAEDVGIYYCLQTTQLPLTFGGGTKVEIK
binding result [2]: binds
EC50 [3]: 0.2 µg/mL

B6: NORO-310A (antibody, V domains shown)
VH: EVQLVESGGGLVRPGESLRLSCVASGFSVSDNYMSWVRQAPGKGLQWVSVIYSGGTTFYTDSVKGRFTISRDKSKNTLFLQMNSLRAEDTAVYFCTRDPSQYYDSRGHYYQTFTPSFDSWGQGTLVTVSS
VL: DIQMTQSPSVMSASVGDRVTITCRASQDISDYLAWFQQKPGKVPKRLIYAASSLQNGVPSRFSGSGSGTEFTLTISSLQPEDFATYYCLQHDTYPLTFGGGTKVEIK
binding result [2]: binds
EC50 [3]: 6.2 µg/mL

B7: NORO-250B (antibody, V domains shown)
VH: QVQLVESGGGLVKPGGSLTLSCAASGFTFSDYYMNWIRQAPGKRLEWVSYISGIMSSTNYADSVKGRFTISRDTAKKSVYLQMNSLRAEDTAVYYCARATSQGATSYYFDSWGQGTLVTVSS
VL: QSVLTQPPSVSGAPGQRVTISCTGSSSNIGADYDVHWYQQLPGAAPRLLIYADINRPSGVPDRFSGSKSGTSASLAITGLQAEDEADYYCQSYDRSVSGSAVFGGGTKVTVL
binding result [2]: binds

B8: NORO-313.1 (antibody, V domains shown)
VH: QVQLVESGGGLVKPGGSLRLSCAASGFTFSDFYMSWIRQAPGKGLEWVGYISSIAGATNYADSVKGRFTISRDSSKRSLYLQMNSLRVEDTAVYYCARMGRLELERRPHYYYPLDVWGQGTLVTVSS
VL: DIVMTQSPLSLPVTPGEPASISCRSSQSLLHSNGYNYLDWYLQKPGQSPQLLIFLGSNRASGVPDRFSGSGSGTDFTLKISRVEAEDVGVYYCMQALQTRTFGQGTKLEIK
binding result [2]: binds

B9: NORO-327A (antibody, V domains shown)
VH: QVQLEVSGGGLVKPGGSLRLSCAASGFTFTDYYMSWIRQAPGKGLEWVAYISGIMSSTKYADSVKGRFTISRDNGKNSVYLQMNSLTAEDTAVYYCARERVEPPSAVTDFWGQGTLVTVSS
VL: QSVLTQSPSVSGAPGQRVTISCTGTSSNIGAGYDVHWYQQFPGTAPKLLISHNTNRPSGVPDRFSGSKSGTSASLAITGLQAEDEADYYCQSFDSSLRGSRVFGGGTKLTVL
EC50 [1]: 0.6 µg/mL

B10: NORO-278 (antibody, V domains shown)
VH: QVQLVESGGGVVQPGRSLRLSCAASGFTFSSYGMHWVRQAPGKGLEWVAVISYDGSNKYYADSVKGRFTISRDNSKNTLYLQMNSLRAEDTAVYYCAKVTIIAAADLLDYWGQGTLVTVSS
VL: B9 VL with S7P, T25S, F41L, S51Y, H52G, T54S, F93Y, R98S, S100P, R101V
binding result [2]: binds
EC50 [3]: 4 µg/mL

B11: NORO-296A (antibody, V domains shown)
VH: QVQLVESGGGLVKPGGSLRLSCAASGFTFSEYYMSWVRQAPGKALEWVSYITSSFSSTSYADSVKGRFVISRDNAKNSLYLQMNSLRVEDTAVYYCARYGAEYGSRSFYFLDWGQGTLVTVSS
VL: QSVLTQPPSVSGAPEQRVTISCTGSSSNIGAGYDVHWYQVLPGIAPKLLIYDNNKRPSGVPDRFSGSKSGTSASLAITGLQAEDEADYYCQSYDSRLSSNVVFGGGTKLTVL
binding result [2]: binds

B12: NORO-279A (antibody, V domains shown)
VH: QVQLVESGGGVVQPGRSLRLSCAASGFTFTKYGMHWVRQAPGKGLEWVAFIAYDGSVKYYGDSAKGRFAISRDNPKNTVYLQMNSLRAEDTAVYYCAKVEIHYYSNSLLGMDVWGQGTLVTVSS
VL: QSVLTQPPSASGTPGQRVTISCSGGNSNIGISYVYWYQHLPGTAPKLLISKNNLRPSGVPDRFSASKSGTSASLAISGLRSEDEAEYYCATLDINMTWVFGGGTKLTVL
binding result [2]: binds
EC50 [3]: 0.2 µg/mL

B13: NORO-123 (antibody, V domains shown)
VH: QVQLVESGGGVVQPGRSLRLSCSTSGFTFSQYPMHWVRQAPGKGLEWVALISYDGMNKYYADSVRGRFTISRDNSENTQYLQMNSLRGDDTAVYYCARVTGDCTGNRCSYWAYYYYGLDVWGQGTLVTVSS
VL: QSALTQPPSASGSPGQSVTISCTGTSSDVGGYKYVSWYQQHPGKAPKLMIYEVTRRPSGVPDRFSGSKSGNTAFLTVSGLQAEDEADYYCGSYAGSTTSGYVFGTGTKVIVL
binding result [2]: binds
EC50 [3]: 5.4 µg/mL

B14: NORO-251A (antibody, V domains shown)
VH: QVQLVESGGGVVQPGRSLRLSCAASGFTFRSYGIHWVRQAPGKGLEWVALISYDGSSKYYADSVKGRFTISRDNSKNTLYLQMNSLRSEDTAVYYCAKVRLTSYSIGWFSFDYWGQGTLVTVSS
VL: QSVLTQPPSVSAAPGQKVTISCSGSSSNIANYYVSWYQQLPGRAPKLLIYDNNKRPSGIPDRISGSKSGTSATLGITGLQTGDEADYYCGTWDTSLSAWVFGGGTKLTVL
binding result [2]: binds
EC50 [3]: 0.9 µg/mL

B15: NORO-263 (antibody, V domains shown)
VH: QVQLVESGGGLVKPGGSLRLSCAASGFTLSDYYMSWIRQAPGKGLEWVAYISSSHTSTYYRDSVKGRFTISRDSAKKSLYLQMNSLRVEDTAIYYCARDWVGGRSAYSDHWGQGTLVTVSS
VL: SYELTQPPSVSVSPGQTARITCSGDALPRRPAFWYQQKSGQAPVLVMYDDSKRPSGIPERFSGSSSGTVATLTISGAQVEDEADYHCYSTDSSGKERVFGGGTKLTVL
binding result [2]: binds
EC50 [3]: 0.6 µg/mL

B16: NORO-315B (antibody, V domains shown)
VH: QVQLVESGGGLVKPGGSLRLSCVASGFTFSDYYMTWFRQTPGRGLEWLSYISAIGGYTEYADSVKSRFIISRDNGKKSLYLQMNSLRAEDSGVYYCAREDCHGTSCYSGDWGQGTLVTVSS
VL: QSVLTQPPSVSGAPGQRVTISCTGSSSNIGAGYDVHWYQQLPGTAPKLLIYHNTNRPSGVPDRFSGSKSGTSAYLTITGLQAEDEADYYCQSYDRSLSKSRVFSGGTKLTVL
binding result [2]: binds
EC50 [3]: 0.7 µg/mL
